The target of assay [1] is S. pneumoniae LicB (S. pneumoniae). As to the kind of experiment: cryo-EM structure.
Assay [2] concerns the target T1, S. pneumoniae LicB (Streptococcus pneumoniae TIGR4 (ATCC …)).
T1 chain: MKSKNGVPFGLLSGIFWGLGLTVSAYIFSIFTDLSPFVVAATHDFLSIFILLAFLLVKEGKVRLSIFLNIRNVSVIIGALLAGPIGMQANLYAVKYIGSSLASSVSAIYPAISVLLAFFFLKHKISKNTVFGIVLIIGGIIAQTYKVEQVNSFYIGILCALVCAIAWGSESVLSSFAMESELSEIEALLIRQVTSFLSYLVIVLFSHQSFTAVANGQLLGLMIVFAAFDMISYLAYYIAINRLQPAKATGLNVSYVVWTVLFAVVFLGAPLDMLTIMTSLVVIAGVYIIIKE
As to the kind of experiment: cryo-EM structure.

For the molecule S. pneumoniae LicB (natural protein), the stoichiometry N (in general, the number of molecules, sites or subunits per partner or assembly) in assay [1] was determined as 2.

B1: sybody C (VHH)
VHH: QVQLVESGGGSVQAGGSLRLSCAASGTIHAIGYLGWFRQAPGKEREGVAALTTYDGWTYYADSVKGRFTVSLDNAKNTVYLQMNSLKPEDTALYYCAAADDGWMFPLYHNHYEYWGQGTQVTVSA
Take B1: in assay [2], the binding result was “binds”.
